We go through 19 molecules from patent US20250304662A1 (published 2025).

Positions count from the first letter of the chain named.

What all share (assay): ELISA
In one assay the target is T1, Kp FimHLD.
T1 chain: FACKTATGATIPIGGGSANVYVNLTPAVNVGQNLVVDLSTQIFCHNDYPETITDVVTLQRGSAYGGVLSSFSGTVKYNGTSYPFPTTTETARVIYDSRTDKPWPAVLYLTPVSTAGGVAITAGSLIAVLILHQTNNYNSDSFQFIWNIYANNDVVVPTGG

The target of the next assay is Ec FimHLD.
The next assay addresses T2, Ec FmlHLD.
T2 chain: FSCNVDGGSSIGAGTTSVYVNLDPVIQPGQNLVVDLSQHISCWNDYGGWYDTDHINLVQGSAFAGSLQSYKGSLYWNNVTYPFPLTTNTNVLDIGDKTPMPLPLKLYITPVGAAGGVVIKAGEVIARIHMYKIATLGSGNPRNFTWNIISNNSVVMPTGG

B1: Kp 1B02 (antibody, V domains shown)
VH: EVQLQQSGAELVRPGSSVKMSCKTSGYTFTFYGINWVKQRPGQGLEWIGYIYVGNGYSEYNEKFKVKATLTSDTSSSTAYMQLSGLTSEDSAIYFCARSDGYNYFDYWGQGTTLTVSS
VL: QIVLTQSPAILSASPGEKVTMTCRASSSLHYMHWYQQKTGSSPKPWIYATSNLASGVPARFSGSGSGTSYSLTISRVEAEDTATYYCQQWSSNPPTFGAGTKLELKR
For the molecule B1, the EC50 with Kp FimHLD came out at 0.0166 µg/mL; with Ec FimHLD, 0.024 µg/mL.

B2: 2G04 (antibody, V domains shown)
VH: EVQLQQPGPELVKPGSSLKISCKASGYTFTDYFINWVKQRPGQGLDWIGWIFPGSGSTYYNDKFKGKATLTVDKSSSTAYMLLSSLTSEASAVYFCARWDSDSTYWYFDVWGTGTTVTVSS
VL: QIVLTQSPALMAASPGEKVTITCSVNSSISSSTLHWYQQKSQTSPKPWIYGTSNLASGVPIRFSGSGSGTSYSLTISSMEAEDAATYYCQQWSTYPYTFGGGTKLEIKR
For the molecule B2, the EC50 with Kp FimHLD is 0.0081 µg/mL; with Ec FimHLD, 0.0115 µg/mL; with Ec FmlHLD, 2.89 µg/mL.

B3: Kp 2E08 (antibody, V domains shown)
VH: EVQLQQPGAELAKPGASVKLSCKASGYNFTSYWMHWVKQRPGQGLEWIGLIHPNSGGTYYNEKFKSKATLTLDRSSSTAYMQLSSLTSEDSAVYYCARFEEEWGGYWYFDVWGTGTTVTVSS
VL: B2 VL with N26S, T33N, Q42E, I61V, T94S
Consider B3, for which the EC50 with Kp FimHLD turned out to be 0.0149 µg/mL; with Ec FimHLD it was 0.0092 µg/mL.

B4: Kp 1C01 (antibody, V domains shown)
VH: EVQLQQPGPVLVKPGPSVKISCKASGFTFTDYYMHWVKQSHGKSLEWIGLVSPYNGGTFYNQKFKGKATLTVDTSSSTAYMELNSLTSEDSAVYYCARVGNSYVHYAMDYWGQGTSVTVSS
VL: B2 VL with N26S, T33N, Q42E, I61V, T94N
On to B4, for which the EC50 in the assay with Kp FimHLD amounted to 0.0125 µg/mL; with Ec FimHLD, 0.0146 µg/mL; with Ec FmlHLD, 0.886 µg/mL.

B5: Ec1 F7 (antibody, V domains shown)
VH: EVQLQQPGPVLVKPGPSVKISCKASGFTFTDYFIHWVKQSHGKSLEWIGLVSPYNGGTYYNQQFKGKATLTVDTSSSTAYMDLNSLTSEDSAVYYCTRLLRGYWYFDVWGTGTTVTVSS
VL: B2 VL with N26S, S30G, T33N, Q42E, I61V
For the molecule B5, the EC50 worked out at 0.0078 µg/mL with Kp FimHLD, 0.0109 µg/mL in the assay with Ec FimHLD and 0.0083 µg/mL in the assay with Ec FmlHLD.

B6: Kp 2G02 (antibody, V domains shown)
VH: EVQLQQSGPVLVKPGPSVKISCKASGFTFTDYYMHWVKQSHGKSLEWIGLVYPYNGGTYYNQKFKGKATLTVDTSSSTAYMELNSLTSEDSAVYYCVRLGNGSSNEWYFDVWGTGTTVTVSS
VL: B2 VL with N26S, S32Y, T33N, Q42E, I61V, S93R, Y97W
As to B6, the EC50 with Kp FimHLD is 0.0105 µg/mL; in the assay with Ec FimHLD, 0.015 µg/mL; with Ec FmlHLD, 0.0144 µg/mL.

B7: Kp 1D09 (antibody, V domains shown)
VH: EVQLQQPGAELVKPGASVKLSCKASGYTFTNYWIHWMKQRPGRGLEWIGRIEPNSGDTKYNEKIKSRATLTVDKPSSTAYMQLSSLTSEDSAVYYCARSGYDYPEAWGQGTTLTVSS
VL: DIVLTQSPASLAVSPGQRATISCRASEGVEYYGTTLMQWYQQKPGQPPKLLIYAASNVESGVPARFSGSGSGTDFSLNIHPVEEDDIAMYFCQQSRKVSWTFGGGTKLEIKR
With B7, the values for the EC50 with Kp FimHLD and with Ec FimHLD were 0.0383 µg/mL and 0.0227 µg/mL, respectively.

B8: Kp 2B06 (antibody, V domains shown)
VH: EVQLQQPGAELVKPGASVKLSCKASGYTFTNYWMHWVKHRPGRGLEWIGRIDPNSGGTKYNEKFKNKATLTVDNPSSTGYMQLSSLTSEDSAVYYCTRSGYDYPDYWGQGTTLTVSS
VL: B7 VL with P15L, G28S, T35S, L50V, E59D, A64P, I79F, S99P
On to B8, for which the concentration for a half-maximal effect (EC50) with Kp FimHLD amounted to 0.0169 µg/mL; in the assay with Ec FimHLD, 0.0092 µg/mL.

B9: Ec E7 (antibody, V domains shown)
VH: EVQLQQSGAELVKPGASVKVSCKASGYSFTNYWVHWVKQRPGQGLEWIGRIYSSDGDSNYNQKFKGKATLTVDKSSSTAYMQLSSLTSEDSAVYYCAIEGNLYFDYWGQGTTLTVSS
VL: DIVLTQSPASLAVSLGQRATISCRASQSVSTSSYSYMHWYQQKPGQPPKFLIKYASNLESGVPARFSGSGSGTDFTLNIHPVEEEDTATYYCQHSWEIPLTFGAGTKLKLKR
B9 returned an EC50 with Ec FimHLD of 0.0266 µg/mL.

B10: Ec F11 (antibody, V domains shown)
VH: QVQLKESGPGLVAPSQSLSITCTVSGFSLTNYAISWVRQPPGKGLEWLGIIWTGGGTLYNSALKSRPSISKDNSKSQVFLKMNSLQTDDTARYYCARAYYSNYDWYFDVWDTGTTVTVSS
VL: DIQMTQSPSSLSASLGDRVTISCSASQGISNYLNWYQQKPDGTVKLLIYYTSSLHSGVPSRFSGSGSGTDYSLTISNLEPEDIATYYCQQYSQVPYTFGGGTKLEIKR
With B10, the EC50 with Kp FimHLD amounted to 0.752 µg/mL; in the assay with Ec FimHLD, 0.0273 µg/mL.

B11: Ec C12 (antibody, V domains shown)
VH: B10 VH with E6Q, P67L
VL: B10 VL
B11 registered an EC50 with Ec FimHLD of 0.0122 µg/mL.

B12: Kp 1B07 (antibody, V domains shown)
VH: EVQLQQPGAELVKPGTSVKLSCKASGYTFTSYWMHWVKQRPGQGLEWIGMIHPNSGSTNYNEMFESKASLTVDKSSSTAYMQLSSLTSEDSAVYYCARIGYSGWGQGTSVTVSS
VL: DIVMTQSPSSLSVSAGEKVTMSCKSSQSLLNGGNQKNYLAWYQQKPGQPPKVLINGASTRESGVPDRFTGNGSGTDFTLTISSVQAEDLAVYYCQNDHTYPLTFGAGTKLELKR
In turn, B12 yielded an EC50 with Kp FimHLD of 0.0148 µg/mL.

B13: Kp 1E04 (antibody, V domains shown)
VH: EVQLQQSGAELVKPGASVKLSCKASGYTFTSYWVHWVRQRPGQGLEWIGMIHPNSGSTNYNEKFKSKATLTVDKSSSTAYMQLSSLTSEDSAVYYCASYYYGSSYYFDYWGQGTTLTVSS
VL: B12 VL with S12T, S14T, G32S, A40T, V52L, N55Y, G56W, N71S, H98Y, T99S
In the case of B13, in the assay with Kp FimHLD, the EC50 is 0.731 µg/mL.

B14: Kp2 2C07 (antibody, V domains shown)
VH: EVKLVESGEGLVKPGGSLKLSCAASGFTFSSYAMSWVRQTPEKRLDWVAYISSGGDHIYYADTVKGRFTISRDNARNTLYLQMSSLKSEDTAMYYCTRDTGYYVSRYFDVWGTGTTVTVSS
VL: DIVMTQSQKFMSTSVGDRVSVTCKASQNVVTNVAWYQQKSGQSPKVVIYSASFRSSGVPDRFTGSGSGTDFTLTISNVQSEDLAEYFCHQYNSHPLTFGGGTKLEIKR
With B14, the results for the EC50 with Kp FimHLD and with Ec FimHLD were 0.0186 µg/mL and 0.013 µg/mL, respectively.

B15: Kp 2C09 (antibody, V domains shown)
VH: B14 VH with K3M, G10D, A23I, D46E, H57Y, A61T, Y80F
VL: B14 VL with V30G, S40P, V46A, V47L, S55N, S93N, H94Y
Consider B15, for which the EC50 is 0.0101 µg/mL in the assay with Kp FimHLD and 0.0129 µg/mL with Ec FimHLD.

B16: Kp 2D07 (antibody, V domains shown)
VH: EVQLQQSGPELVRPGASVKISCKASGYTFTDYYIHWLKQRPGQGLEWIGLIFPGSGSIYCNEKFKGKATLTVDKSSTTAYMLLSSLTSEDSAVYFCARWETTAWYFDVWGTGTTVTVSS
VL: QIVLTQSPAILSASPGEKVTMTCRASLSVSYMHWYQQKPGSSPKPWIYATSNLASGVPARFSGSGSGTSYSLTVSRVEAEDAATYYCQQWRSYPYTFGGGTKLEIKR
For B16, the EC50 with Kp FimHLD came to 0.0144 µg/mL; with Ec FimHLD, 0.0129 µg/mL; with Ec FmlHLD, 0.0178 µg/mL.

B17: Kp 2D04 (antibody, V domains shown)
VH: B1 VH with S7P, A9G, S58T
VL: B1 VL with S12T, L29V, T39P, Q88H, L105I
Consider B17, for which the concentration for a half-maximal effect (EC50) with Kp FimHLD amounted to 0.0119 µg/mL; with Ec FimHLD, 0.0121 µg/mL.

B18: Ec A2 (antibody, V domains shown)
VH: EVQLQQSGAEQVRPGASVKMSCKASGYTFTTYNMNWMKQTPGQGLEWIGVIYPGNGDISYNQKFKGKATLTVDKSSSTAYMQLSSLTSEDSAVYFCAREGDYGPWFAYWGQGTLVTVSA
VL: QIVLTQSPAIMSASPGEKVTMTCRASSSVSSSYLHWYQQKSGASPKFWIYSTSKLASGVPARFSGSGSGTSYSLTISSVEAEDAATYYCQHYSRYPLTFGGGTKLEIKR
As for B18, the EC50 in the assay with Kp FimHLD came to 0.0141 µg/mL; with Ec FimHLD, 0.0131 µg/mL.

B19: Ec3 B7 (antibody, V domains shown)
VH: EVQLQQPGAELVRPGASVKMSCKASGYTFTIYNLHWVKQTPRQGLEWIGTIYPGDGDTSYNQKFKGKATLTVDKSSSTAYMQLSNLTSEDSAVYFCAREGDYGPWFAYWGQGTLVTVSA
VL: B18 VL with F47L, T52S, K54N, S77N, S93G, R94S
Turning to B19, the EC50 with Kp FimHLD turned out to be 0.0391 µg/mL; with Ec FimHLD, 0.0241 µg/mL.
